From PMC6764996, “Molecular basis of microhomology-mediated end-joining by purified full-length Polθ”

Molecular target: Polθ (full-length DNA polymerase theta) (human, UniProt O75417 1-2590)
Assay: fluorescence anisotropy; 1 mM ATP, 10 mM MgCl2; KD printed only in figure; significantly lower than Polθ-pol and Polθ-hel; Anisotropy: 25 mM Tris-HCl pH 8.8, 1 mM DTT, 0.01% NP-40, 10 mM MgCl2, 10% glycerol, 0.1 mg/ml BSA, 1 mM ATP, 30 mM NaCl, room temp, at least 30 min, 10 nM FAM-ssDNA
Details: protein: recombinant; tags: 3xFLAG (N-terminal); label: 5' FAM

Chain of Polθ (full-length DNA polymerase theta) (O75417 whole entry): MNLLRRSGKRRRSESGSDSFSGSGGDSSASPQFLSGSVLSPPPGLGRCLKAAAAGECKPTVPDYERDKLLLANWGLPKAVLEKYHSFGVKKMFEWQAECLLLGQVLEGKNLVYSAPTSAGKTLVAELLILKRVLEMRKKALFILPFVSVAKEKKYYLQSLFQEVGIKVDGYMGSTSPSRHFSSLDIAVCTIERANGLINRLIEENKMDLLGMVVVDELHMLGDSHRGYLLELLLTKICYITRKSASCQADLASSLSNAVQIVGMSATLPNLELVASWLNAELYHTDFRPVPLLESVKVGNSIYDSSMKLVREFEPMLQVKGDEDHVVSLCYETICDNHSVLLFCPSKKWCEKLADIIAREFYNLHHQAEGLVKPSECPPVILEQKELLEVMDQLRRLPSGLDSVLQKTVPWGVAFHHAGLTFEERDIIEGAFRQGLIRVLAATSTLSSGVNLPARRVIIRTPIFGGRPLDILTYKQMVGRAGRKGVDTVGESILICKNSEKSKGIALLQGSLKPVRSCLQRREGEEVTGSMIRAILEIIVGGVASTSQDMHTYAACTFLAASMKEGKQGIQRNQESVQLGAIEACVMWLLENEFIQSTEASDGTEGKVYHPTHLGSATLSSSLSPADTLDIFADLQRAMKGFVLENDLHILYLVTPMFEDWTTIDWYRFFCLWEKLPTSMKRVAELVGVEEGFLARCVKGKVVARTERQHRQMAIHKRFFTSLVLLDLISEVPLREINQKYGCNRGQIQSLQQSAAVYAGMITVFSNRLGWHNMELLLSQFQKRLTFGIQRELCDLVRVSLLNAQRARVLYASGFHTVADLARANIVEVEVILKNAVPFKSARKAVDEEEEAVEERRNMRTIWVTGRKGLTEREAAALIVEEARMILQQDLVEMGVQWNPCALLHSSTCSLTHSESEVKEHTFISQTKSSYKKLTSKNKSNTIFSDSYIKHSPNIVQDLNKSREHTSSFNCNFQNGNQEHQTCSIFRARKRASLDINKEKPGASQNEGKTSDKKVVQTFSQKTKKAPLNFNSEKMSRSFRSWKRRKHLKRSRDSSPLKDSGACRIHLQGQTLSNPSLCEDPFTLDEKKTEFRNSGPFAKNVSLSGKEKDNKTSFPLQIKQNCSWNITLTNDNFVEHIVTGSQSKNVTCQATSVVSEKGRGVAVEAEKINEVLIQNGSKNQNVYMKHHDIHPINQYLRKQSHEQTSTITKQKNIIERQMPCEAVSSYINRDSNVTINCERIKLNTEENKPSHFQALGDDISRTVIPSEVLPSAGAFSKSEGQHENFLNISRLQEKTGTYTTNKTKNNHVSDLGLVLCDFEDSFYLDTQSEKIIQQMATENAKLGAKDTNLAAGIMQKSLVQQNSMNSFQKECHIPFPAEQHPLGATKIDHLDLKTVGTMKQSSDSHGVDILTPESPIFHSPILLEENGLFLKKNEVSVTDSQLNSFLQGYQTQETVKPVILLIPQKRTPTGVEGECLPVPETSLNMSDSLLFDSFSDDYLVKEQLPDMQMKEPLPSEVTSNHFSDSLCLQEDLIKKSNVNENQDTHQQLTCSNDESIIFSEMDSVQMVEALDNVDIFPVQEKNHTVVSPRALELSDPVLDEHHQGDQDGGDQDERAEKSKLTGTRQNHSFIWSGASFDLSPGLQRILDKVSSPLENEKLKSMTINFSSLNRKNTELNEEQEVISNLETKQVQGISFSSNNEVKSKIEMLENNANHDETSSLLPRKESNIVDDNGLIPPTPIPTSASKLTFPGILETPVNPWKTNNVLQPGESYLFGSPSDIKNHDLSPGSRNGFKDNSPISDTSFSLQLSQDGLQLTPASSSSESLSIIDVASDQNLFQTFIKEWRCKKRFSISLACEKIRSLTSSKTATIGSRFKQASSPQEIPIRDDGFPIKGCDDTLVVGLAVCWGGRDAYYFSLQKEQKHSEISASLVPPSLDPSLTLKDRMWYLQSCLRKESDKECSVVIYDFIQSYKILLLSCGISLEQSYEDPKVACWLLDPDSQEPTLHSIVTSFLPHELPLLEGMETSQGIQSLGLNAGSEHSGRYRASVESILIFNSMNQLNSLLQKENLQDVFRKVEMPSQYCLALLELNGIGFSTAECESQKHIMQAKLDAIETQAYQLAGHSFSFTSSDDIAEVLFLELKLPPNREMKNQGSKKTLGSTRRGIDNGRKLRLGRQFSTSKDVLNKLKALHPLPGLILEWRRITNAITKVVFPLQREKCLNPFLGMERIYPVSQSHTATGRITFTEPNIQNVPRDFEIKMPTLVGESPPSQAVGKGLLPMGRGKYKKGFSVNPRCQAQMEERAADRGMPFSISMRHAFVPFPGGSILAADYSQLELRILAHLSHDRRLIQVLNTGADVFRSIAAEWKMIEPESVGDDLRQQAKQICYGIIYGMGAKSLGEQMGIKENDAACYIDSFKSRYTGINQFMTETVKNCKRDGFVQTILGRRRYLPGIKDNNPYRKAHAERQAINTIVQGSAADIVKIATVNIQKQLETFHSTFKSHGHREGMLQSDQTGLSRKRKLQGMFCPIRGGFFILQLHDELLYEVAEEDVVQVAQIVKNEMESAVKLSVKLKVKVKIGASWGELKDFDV

Binder: TTTTTTTTTTTTTTTTTTTTTTTTTTTTT (ssDNA) [RP316FAM5 (29 nt ssDNA)]
- binding result: binds
